Assay results taken from IntAct's records for PubMed 27150043.

Biological target: ab1ip_mouse Apbb1ip (UniProt Q8R5A3)
UniProt Q8R5A3, sequence (Q8R5A3 whole entry): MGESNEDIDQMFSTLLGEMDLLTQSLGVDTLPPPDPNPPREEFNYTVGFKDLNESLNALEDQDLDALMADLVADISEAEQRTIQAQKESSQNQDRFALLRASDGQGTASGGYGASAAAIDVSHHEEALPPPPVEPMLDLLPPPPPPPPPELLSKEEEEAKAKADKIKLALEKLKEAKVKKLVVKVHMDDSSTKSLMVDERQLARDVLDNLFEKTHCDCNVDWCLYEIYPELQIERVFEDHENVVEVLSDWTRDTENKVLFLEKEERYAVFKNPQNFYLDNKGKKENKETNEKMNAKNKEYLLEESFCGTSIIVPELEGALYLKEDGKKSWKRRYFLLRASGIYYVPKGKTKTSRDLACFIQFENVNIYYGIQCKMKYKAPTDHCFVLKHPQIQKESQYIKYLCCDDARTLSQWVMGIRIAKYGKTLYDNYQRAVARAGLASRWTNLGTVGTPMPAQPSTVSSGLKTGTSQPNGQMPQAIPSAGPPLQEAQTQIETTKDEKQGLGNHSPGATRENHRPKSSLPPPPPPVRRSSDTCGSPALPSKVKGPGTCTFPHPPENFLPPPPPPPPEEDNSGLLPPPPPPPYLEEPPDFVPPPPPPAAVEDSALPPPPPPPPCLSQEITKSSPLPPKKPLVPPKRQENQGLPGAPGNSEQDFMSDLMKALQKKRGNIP

Row | effect of a mutation on the interaction | Substance
1 | decreasing interaction strength | Talin-1 (Mus musculus), P26039 E1794Y;E1797Y;Q1801Y
2 | decreasing interaction strength | Talin-1 (Mus musculus), P26039 E1794Y;E1797Y
